Test results reported in patent US10941182 (Amgen, dated 2021).
Each block holds one binder with its values, some of them ahead of it. Starred links: 1 amine or outer side, 2 acyl side, 3 side chain; linkers in the order of their positions; H or OH if unused. Non-standard residues stand in square brackets, D forms with d. *: point of attachment. Oic = O=C(O)[C@@H]1C[C@@H]2CCCC[C@@H]2N1; Phe(4-Cl) = N[C@@H](Cc1ccc(Cl)cc1)C(=O)O; γGlu = O=C(O)[C@H](CCC(=O)[*:2])N[*:1]; d(β3hF) = N[C@@H](CC(=O)O)Cc1ccccc1; NMeR = CN[C@@H](CCCNC(=N)N)C(=O)O; Palmitoyl = CCCCCCCCCCCCCCCC(=O)*; hArg = N=C(N)NCCCC[C@H](N)C(=O)O; Cha = N[C@@H](CC1CCCCC1)C(=O)O; αMeL = CC(C)C[C@](C)(N)C(=O)O; β3hP = O=C(O)C[C@@H]1CCCN1; Nle = CCCC[C@H](N)C(=O)O; Hexanoyl = CCCCCC(=O)*; AEEA = NCCOCCOCC(=O)O; BLeu = β-leucine

Experiments:
rat APJ receptor = target: T1, rat APJ receptor (rat, UniProt Q9JHG3 1-377); assay: cell-based or functional assay
T1 sequence (looked up): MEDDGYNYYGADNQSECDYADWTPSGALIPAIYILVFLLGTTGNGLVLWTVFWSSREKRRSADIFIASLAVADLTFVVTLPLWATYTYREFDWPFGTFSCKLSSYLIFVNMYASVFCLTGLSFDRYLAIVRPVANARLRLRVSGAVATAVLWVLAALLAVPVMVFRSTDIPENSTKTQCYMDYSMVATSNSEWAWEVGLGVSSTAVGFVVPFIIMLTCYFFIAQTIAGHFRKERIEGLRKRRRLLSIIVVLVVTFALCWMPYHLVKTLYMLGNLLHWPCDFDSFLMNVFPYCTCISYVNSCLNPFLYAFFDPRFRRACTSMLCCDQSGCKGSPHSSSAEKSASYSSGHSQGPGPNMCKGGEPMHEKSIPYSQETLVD

human APJ receptor = target: T2, human APJ receptor (human, UniProt P35414 1-380); assay: cell-based or functional assay
T2 sequence (looked up): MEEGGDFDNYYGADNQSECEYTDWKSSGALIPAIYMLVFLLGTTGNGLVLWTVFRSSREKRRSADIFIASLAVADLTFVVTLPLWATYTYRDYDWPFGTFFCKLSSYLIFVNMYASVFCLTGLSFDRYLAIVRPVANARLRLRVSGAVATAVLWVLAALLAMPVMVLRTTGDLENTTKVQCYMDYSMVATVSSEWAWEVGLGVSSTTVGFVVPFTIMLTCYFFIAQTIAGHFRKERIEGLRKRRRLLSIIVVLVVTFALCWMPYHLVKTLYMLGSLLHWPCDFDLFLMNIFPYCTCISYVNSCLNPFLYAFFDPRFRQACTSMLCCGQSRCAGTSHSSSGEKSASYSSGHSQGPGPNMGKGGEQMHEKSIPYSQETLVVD

Binder: KLRKHNXLQRRXMPLHSRVPFP ({H2}KLRKHN[Abu]LQRR[Abu]MPLHSRVPFP{COOH}) [SEQ ID NO: 14]
EC50 Rat APJ Receptor (rat APJ receptor): 32.4 nM | EC50 Human APJ Receptor (human APJ receptor): 0.301 nM

Binder: XXXQRPRLSHKGPXPF ({HDA}[AC4Abu][Aeea][Aeea]QRP[NMeArg]LSHKGP[Nle]P[4-Cl-F]{COOH}) [SEQ ID NO: 496]
EC50 Rat APJ Receptor (rat APJ receptor): 0.481 nM | EC50 Human APJ Receptor (human APJ receptor): 0.0874 nM

B1: SEQ ID NO: 506 (peptide)
peptide: Hexanoyl-[γGlu][AEEA][AEEA][AEEA][hArg]Q[hArg]P[NMeR][Cha]SHKG[Oic][Nle]P[Phe(4-Cl)]-OH
SMILES: CCCCCC(=O)N[C@@H](CCC(=O)NCCOCCOCC(=O)NCCOCCOCC(=O)NCCOCCOCC(=O)N[C@@H](CCCCNC(=N)N)C(=O)N[C@@H](CCC(N)=O)C(=O)N[C@@H](CCCCNC(=N)N)C(=O)N1CCC[C@H]1C(=O)N(C)[C@@H](CCCNC(=N)N)C(=O)N[C@@H](CC1CCCCC1)C(=O)N[C@@H](CO)C(=O)N[C@@H](Cc1c[nH]cn1)C(=O)N[C@@H](CCCCN)C(=O)NCC(=O)N1[C@H](C(=O)N[C@@H](CCCC)C(=O)N2CCC[C@H]2C(=O)N[C@@H](Cc2ccc(Cl)cc2)C(=O)O)C[C@@H]2CCCC[C@@H]21)C(=O)O
EC50 Rat APJ Receptor (rat APJ receptor): 13.2 nM | EC50 Human APJ Receptor (human APJ receptor): 3.49 nM

Binder: XXXQRPRLSHKGPXPF ({Oc}[AC4Abu][Aeea][Aeea]QRP[NMeArg]LSHKGP[Nle]P[4-Cl-F]{COOH}) [SEQ ID NO: 493]
EC50 Rat APJ Receptor (rat APJ receptor): 0.647 nM | EC50 Human APJ Receptor (human APJ receptor): 0.12 nM

Now from value to binder:

EC50 Rat APJ Receptor (rat APJ receptor): 0.773 nM | EC50 Human APJ Receptor (human APJ receptor): 0.309 nM
Binder: Palmitoyl-[γGlu][AEEA][AEEA][dQ]RP[NMeR][αMeL][BLeu]HKG[Oic][Nle][β3hP][Phe(4-Cl)]-OH [SEQ ID NO: 628]

EC50 Rat APJ Receptor (rat APJ receptor): 4.59 nM | EC50 Human APJ Receptor (human APJ receptor): 0.658 nM
Binder: XXXQRPRLSHKGPXPF ({HexDDA}[AC4Abu][Aeea][Aeea]QRP[NMeArg]LSHKGP[Nle]P[4-Cl-F]{COOH}) [SEQ ID NO: 512]

EC50 Rat APJ Receptor (rat APJ receptor): 5.94 nM | EC50 Human APJ Receptor (human APJ receptor): 1.21 nM
B2: SEQ ID NO: 561 (peptide)
peptide: XXXQRPRLSHKGPXPF
modifications: {hexanoyl}[AC4Abu][Aeea][Aeea]Q[NMehArg]P[NMeArg][aMeLeu]SHKGP[Nle]P[4-Cl-F]{COOH}

EC50 Rat APJ Receptor (rat APJ receptor): 10.3 nM | EC50 Human APJ Receptor (human APJ receptor): 1.25 nM
B3: SEQ ID NO: 614 (peptide)
peptide: Palmitoyl-[γGlu][AEEA][AEEA][dQ][hArg]P[dR][Cha]SHKG[Oic][Nle]P[d(β3hF)]-OH
SMILES: CCCCCCCCCCCCCCCC(=O)N[C@@H](CCC(=O)NCCOCCOCC(=O)NCCOCCOCC(=O)N[C@H](CCC(N)=O)C(=O)N[C@@H](CCCCNC(=N)N)C(=O)N1CCC[C@H]1C(=O)N[C@H](CCCNC(=N)N)C(=O)N[C@@H](CC1CCCCC1)C(=O)N[C@@H](CO)C(=O)N[C@@H](Cc1c[nH]cn1)C(=O)N[C@@H](CCCCN)C(=O)NCC(=O)N1[C@H](C(=O)N[C@@H](CCCC)C(=O)N2CCC[C@H]2C(=O)N[C@@H](CC(=O)O)Cc2ccccc2)C[C@@H]2CCCC[C@@H]21)C(=O)O

EC50 Rat APJ Receptor (rat APJ receptor): 0.274 nM | EC50 Human APJ Receptor (human APJ receptor): 0.0553 nM
Binder: XXXQRPRLSHKGPXPF ({hexanoyl}[AC4Abu][Aeea][Aeea]QR[aMePro][hArg][aMeLeu]SHKGP[Nle]P[4-Cl-F]{COOH}) [SEQ ID NO: 560]
